Data: paper PMC6093495

Assays:
OmpF (Escherichia coli) = OmpF (Escherichia coli) (UniProt P02931); experiment: ITC; settings: cited from earlier work
[1] = biological target: OmpF trimer (Escherichia coli (endogenous in B^E3000)) (UniProt P02931); experiment: ITC

For “Colicin E9 OBS1 peptide OBS1 (from UniProt P09883)”, the Kd (OmpF (Escherichia coli)) is given as 2 µM.
In the case of “(OBS2)3, TMEA-mediated tridentate OBS2 in the form of a colicin DNase fusion (S71C ColE9^53–83-DNase) (from UniProt P09883 53-83)”, the Kd [1] is reported as 480 nM, the dH [1] is reported as -5.64 kcal·mol^–1 and the stoichiometry N [1] is reported as 3.
In the case of Colicin E9 OBS2 peptide, the Kd (OmpF (Escherichia coli)) is listed as 24 µM.
